The text below walks through data of publication PMC2838905.

For the experiment, the target named is Dictyostelium myosin II (bipolar filaments) (Dictyostelium discoideum) (UniProt P08799).

B1: GST-B-Δ-WD, MHCK-B truncation lacking only the WD-repeat domain (amino acids 1-450) (domain or fragment)
chain: MIFKVWFSYEDEEVELSELTNDTTVSAIRKILHEGKIFRFPYGTSQTDLQIGKMLPSGSGGGATADSKFEKFKARNTLADIQYKVGDTLYVRVKKSKPTNDSLLPTLNIAFLDGSERAIKWEYDPYTTTAQWTCTATLVKVEPVPFAEGAFRKAYHTLDLSKSGASGRYVSKIGKKPTPRPSYFEDVKMQMIAKKWADKYNSFKPPKKIEFLQSCVLEFVDRTSSDLICGAEPYVEGQYRKYNNNSGFVSNDERNTPQSFSHFTYEHSNHQLLIIDIQGVGDHYTDPQIHTYDGVGFGIGNLGQKGFEKFLDTHKCNAICQYLNLQSINPKSEKSDCGTVPRPDLIFPDTSERDNNNNNNNNNNNNNNNNNNNSNNNNNNNSSISKSLVEISSGSKERNDRDSPSRQLFVSNDGNTLNTNKERSKSKSIDLEKPEILINNKKKESINLET
As for B1, the phosphorylation of MHC in a kinase assay (50 nM kinase, 1.0 μM myosin II), against the full-length kinase (% of the full-length kinase) worked out at 30.
